Results: patent US20200397860A1, “SLIT AND BONE GROWTH MODULATION” (Cornell University, priority 2018, published 2020)
“Also recorded” adds a separate entry of the source.

How the values were obtained:
[1] = system: bone marrow endothelial cells; test: Immunoblot of YAP, AKT and ERK phosphorylation after SLIT3 treatment; assay type: cell-based, mouse
Protocol: Western blot analysis was performed according to a previously described standard protocol. (Greenblatt et al. 2016) Primary antibodies were specific for SLIT3 (1:500; R&D Systems, AF3629), ROBO1 (1:500; Abeam, ab7279), ROBO2 (1:1000; Abcam, ab75014), YAP (1:1,000; Cell Signaling, 4912), p-YAP (1:1,000; Cell signaling, 4911), AKT (1:1,000; Cell Signaling, 4691), p-AKT (1:1,000; Cell Signaling, 4060), ERK (1:1,000; Cell Signaling, 9102), p-ERK (1:1,000; Cell Signaling, 9101) and beta-actin (1:5,000, sc-47778, Santa Cruz) or Hsp90 (1:1000; sc-13119, Santa Cruz). Secondary anti-mouse/rabbit HRP-conjugated antibodies were subsequently applied.

[2] = system: bone marrow derived EPOCs; test: Alamar blue based proliferation assay; assay type: cell-based, mouse
Protocol: Mouse bone marrow derived late-stage endothelial progenitor outgrowth cells (EPOCs) were obtained from BioChain (7030031) and cultured in growth medium (BioChain Z7030035) as described previously (Xie et al. 2014). Endothelial cell migration assay was set up in Trans well-24 well plates with 8-um pore filters. Briefly, 1×10^5 cells/well after 1-hour serum starvation were seeded in the upper chamber, then incubated with conditioned medium from osteoblasts and control in the lower chambers for a further 3 h. The cells in the upper surface of each filter were removed with cotton swabs. The cells that migrated into the lower surface were fixed with 4% PFA for 30 min and then stained with crystal violet. The cell numbers were quantified by counting a centered microscope field per each filter (5 wells for each condition). […] The width of the wound area was quantitatively evaluated using ImageJ (see website at rsb.info.uih.gov/ij/download.html). […] At 0, 24, 48 hours after seeding, cells were incubated with 10-fold diluted Alamar Blue solution (Thermo Fisher) and the supernatant was evaluated with a spectrophotometer (Thermo) (5 wells for each condition). […] Alter 5 hours incubation at 37° C., the number of tube branches each well was observed and quantified by counting four random fields per well with microscopy (5 wells for each condition).

[3] = system: CD31^hiEMCN^hi endothelium; test: Flow cytometry of skeletal CD31hiEMCNhi endothelium in femurs after IV injection; assay type: in vivo, mouse; conditions: 8-week-old B6 mice, twice weekly IV 1 mg/kg, 21 days, femur; 1 mg/kg
Protocol: Femur and tibia were dissected from mutant mice and control groups after removing surrounding connective tissues. The metaphysis region and diaphysis regions of bone was crushed in Hanks Balanced Salt Solution (Life Technologies) containing 10 mM HOPES (pH 7.2) (CellGro) and enzymatically digested with 2.5 mg/mL Collagenase A (Roche) and 1 unit/mL Dispase II (Roche) for 15 minutes at 37° C. under gentle agitation. The resulting cell suspensions were filtered (40 μm), washed using PBS (pH 7.2) containing 0.5% BSA (Fraction V) and 2 mM EDTA. After washing, equal numbers of cells per mouse were blocked with Purified Rat Anti-Mouse CD16/CD32 (BD Biosciences) for 30 min on ice, then stained with APC-conjugated EMCN antibody (ebioscience 50-5851-80), PE-conjugated CD31 (ebioscience 12-0311-81). FITC-conjugated CD45 (Tonbo 35-0451), APC/Cy7-conjugated Ter119 (Biolegend 116223) and PerCP-Cy5.5-conjugated CD146 (BD Biosciences 562231) for 45 min on ice. After washing, cells were resuspended in PBS (pH 7.2) with 2 mM EDTA and 1 μg/mL 4-6,Diamidino-2-Phenylindole (DAPI) (live/dead exclusion) for analysis on an LSRII flow cytometer system (BD Biosciences) cytometer and analyzed using FlowJo software (TreeStar). Cell sorting was performed with a FACS Aria II SORP cell sorter (Becton Dickinson) at Weill Cornell Medical College, with exclusion of DAPI^+ cells and doublets. […]

[4] = system: bone marrow endothelial progenitor outgrowth cells (EPOCs); test: Matrigel tube formation assay; assay type: cell-based, mouse; conditions: for tube formation (tube branch numbers): EPOCs on Matrigel
Protocol: Mouse bone marrow derived late-stage endothelial progenitor outgrowth cells (EPOCs) were obtained from BioChain (7030031) and cultured in growth medium (BioChain Z7030035) as described previously (Xie et al. 2014). Endothelial cell migration assay was set up in Trans well-24 well plates with 8-um pore filters. Briefly, 1×10^5 cells/well after 1-hour serum starvation were seeded in the upper chamber, then incubated with conditioned medium from osteoblasts and control in the lower chambers for a further 3 h. The cells in the upper surface of each filter were removed with cotton swabs. The cells that migrated into the lower surface were fixed with 4% PFA for 30 min and then stained with crystal violet. The cell numbers were quantified by counting a centered microscope field per each filter (5 wells for each condition). Endothelial cell wound healing assays were conducted in 12-well plates precoated with gelatin (Stemcell Technologies). 3×10^5 cells/well were plated overnight and stimulated with a wound in the form of a single linear scratch made with a yellow pipette tip. After gently washing the well twice, cells were cultured in medium with SLIT3 or vehicle. At 6 and 12 hours after injury, cells were stained by 0.5% crystal violet and photographed. The width of the wound area was quantitatively evaluated using ImageJ (see website at rsb.info.uih.gov/ij/download.html). Endothelial cell proliferation assays were conducted in 96-well plates pre-coated with gelatin (Stemcell Technologies). EPOCs (3×10^4 cells/well) were seeded in the medium with a serial dilution of SLIT3 protein or vehicle in plates. At 0, 24, 48 hours after seeding, cells were incubated with 10-fold diluted Alamar Blue solution (Thermo Fisher) and the supernatant was evaluated with a spectrophotometer (Thermo) (5 wells for each condition). Endothelial cell tube formation assay was conducted in 96-well plates pre-coated with Matrigel (BD). After 1 h serum starvation, EPOCs (3×10^4 cells/well) were seeded in conditioned medium dilution or control medium on polymerized Matrigel in plates. Alter 5 hours incubation at 37° C., the number of tube branches each well was observed and quantified by counting four random fields per well with microscopy (5 wells for each condition).

[5] = EPOCs transduced with Robo1 shRNA

B1: SLIT3: SLIT3 recombinant protein (R&D); secreted ligand of ROBO receptors (protein, UniProt O75094 34-1523, looked up)
Slit homolog 3 protein: CPTKCTCSAASVDCHGLGLRAVPRGIPRNAERLDLDRNNITRITKMDFAGLKNLRVLHLEDNQVSVIERGAFQDLKQLERLRLNKNKLQVLPELLFQSTPKLTRLDLSENQIQGIPRKAFRGITDVKNLQLDNNHISCIEDGAFRALRDLEILTLNNNNISRILVTSFNHMPKIRTLRLHSNHLYCDCHLAWLSDWLRQRRTVGQFTLCMAPVHLRGFNVADVQKKEYVCPAPHSEPPSCNANSISCPSPCTCSNNIVDCRGKGLMEIPANLPEGIVEIRLEQNSIKAIPAGAFTQYKKLKRIDISKNQISDIAPDAFQGLKSLTSLVLYGNKITEIVKGLFDGLVSLQLLLLNANKINCLRVNTFQDLQNLNLLSLYDNKLQTISKGLFAPLQSIQTLHLAQNPFVCDCHLKWLADYLQDNPIETSGARCSSPRRLANKRISQIKSKKFRCSGSEDYRSRFSSECFMDLVCPEKCRCEGTIVDCSNQKLVRIPSHLPEYVTDLRLNDNEVSVLEATGIFKKLPNLRKINLSNNKIKEVREGAFDGAASVQELMLTGNQLETVHGRVFRGLSGLKTLMLRSNLIGCVSNDTFAGLSSVRLLSLYDNRITTITPGAFTTLVSLSTINLLSNPFNCNCHLAWLGKWLRKRRIVSGNPRCQKPFFLKEIPIQDVAIQDFTCDGNEESSCQLSPRCPEQCTCMETVVRCSNKGLRALPRGMPKDVTELYLEGNHLTAVPRELSALRHLTLIDLSNNSISMLTNYTFSNMSHLSTLILSYNRLRCIPVHAFNGLRSLRVLTLHGNDISSVPEGSFNDLTSLSHLALGTNPLHCDCSLRWLSEWVKAGYKEPGIARCSSPEPMADRLLLTTPTHRFQCKGPVDINIVAKCNACLSSPCKNNGTCTQDPVELYRCACPYSYKGKDCTVPINTCIQNPCQHGGTCHLSDSHKDGFSCSCPLGFEGQRCEINPDDCEDNDCENNATCVDGINNYVCICPPNYTGELCDEVIDHCVPELNLCQHEAKCIPLDKGFSCECVPGYSGKLCETDNDDCVAHKCRHGAQCVDTINGYTCTCPQGFSGPFCEHPPPMVLLQTSPCDQYECQNGAQCIVVQQEPTCRCPPGFAGPRCEKLITVNFVGKDSYVELASAKVRPQANISLQVATDKDNGILLYKGDNDPLALELYQGHVRLVYDSLSSPPTTVYSVETVNDGQFHSVELVTLNQTLNLVVDKGTPKSLGKLQKQPAVGINSPLYLGGIPTSTGLSALRQGTDRPLGGFHGCIHEVRINNELQDFKALPPQSLGVSPGCKSCTVCKHGLCRSVEKDSVVCECRPGWTGPLCDQEARDPCLGHRCHHGKCVATGTSYMCKCAEGYGGDLCDNKNDSANACSAFKCHHGQCHISDQGEPYCLCQPGFSGEHCQQENPCLGQVVREVIRRQKGYASCATASKVPIMECRGGCGPQCCQPTRSKRRKYVFQCTDGSSFVEEVERHLECGCLACS
phosphorylation of YAP in response to ligand after Robo1 knockdown [1, 5]: impaired their response
signaling pathways downstream of SLIT3 (YAP, AKT, ERK phosphorylation) ([1]; mouse EPOCs after serum starvation): induces activation of Hippo and ERK MAPK pathway signaling
proliferation [2]: modestly increased the proliferation
levels of skeletal CD31hiEMCNhi endothelium in vivo [3]: increased levels; also recorded: induces production
tube formation (tube branch numbers) [4]: enhanced
tube formation (tube branch numbers) ([4]; listed as Slit3): increases with increased Slit3
tube formation capacity in response to ligand after Robo1 knockdown [4, 5]: impaired their response
ability to induce tube formation after shRNA-mediated knockdown of YAP ([4]; EPOCs transduced with YAP shRNA): significantly reduced the ability
